From US20050108782A1, “Transgenic RS1-/- animal and uses thereof” (priority 2003, published 2005)

Columns and labels:
[1] = biological target: T1, hSGLT1 (Homo sapiens, UniProt P13866); assay: [14C]AMG uptake expressed by hSGLT1 in Xenopus laevis oocytes; format: cell-based
T1 construct: expressed in transfected cells; host or cells: Xenopus laevis oocytes (cRNA injection)
T1 sequence (P13866 1-664): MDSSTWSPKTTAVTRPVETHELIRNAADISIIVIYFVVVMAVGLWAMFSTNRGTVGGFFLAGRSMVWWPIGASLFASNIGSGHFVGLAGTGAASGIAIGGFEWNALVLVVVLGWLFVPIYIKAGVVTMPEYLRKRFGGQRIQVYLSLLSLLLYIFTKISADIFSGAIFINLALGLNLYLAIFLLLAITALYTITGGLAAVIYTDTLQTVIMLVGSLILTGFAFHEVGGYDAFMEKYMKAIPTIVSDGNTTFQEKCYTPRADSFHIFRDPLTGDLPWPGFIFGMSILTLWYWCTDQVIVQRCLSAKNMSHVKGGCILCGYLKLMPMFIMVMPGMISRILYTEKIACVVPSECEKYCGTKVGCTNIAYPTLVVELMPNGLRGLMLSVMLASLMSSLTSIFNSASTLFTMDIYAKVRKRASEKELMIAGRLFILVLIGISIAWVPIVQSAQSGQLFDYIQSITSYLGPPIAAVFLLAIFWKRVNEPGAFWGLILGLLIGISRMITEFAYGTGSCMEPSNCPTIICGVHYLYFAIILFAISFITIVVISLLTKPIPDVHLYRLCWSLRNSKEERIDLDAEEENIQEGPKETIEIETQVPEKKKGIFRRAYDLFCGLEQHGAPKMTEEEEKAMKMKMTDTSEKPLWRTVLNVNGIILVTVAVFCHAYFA
Method: (§1) Stage V-VI oocytes were removed from Xenopus laevis clawed toads, selected and injected with cRNAs or water as described earlier (Veyhl et al., (1994) J. Biol. Chem. 268, 25041-25053). Per oocyte […] of water (control) or water containing plasma membrane transporter cRNAs alone or together with different amounts of hRS1-cRNA were injected. For translation the injected oocytes were incubated for 2-3 days (16° C.) in ORi buffer (5 mM HEPES-Tris, pH 7.4, 100 mM NaCl, 3 mM KCl, 2 mM CaCl and 1 mM MgCl2) containing 50 mg/l gentamycin (Veyhl et al., (1994) J. Biol. Chem. 268, 25041-25053).
(§2) [^14C]-AMG uptake of expressed plasma membrane transporters in oocytes was measured as described earlier Veyhl et al., (1994) J. Biol. Chem. 268, 25041-25053. Each uptake value represents the mean±SEM (n=8-10 oocytes). All experiments were performed with at least 3 batches of Xenopus oocytes.
Dynamin, a member of structurally related but functionally heterogeneous family of GTPases, that is required for clathrin-mediated and other types of endocytosis. After GTP binding dynamin assembles to a ring around the neck of coated pits and induces fission and release of vesicles upon hydrolysis of GTP (Eccleston et al., (2002) Eur. Biophys. J. 31, 275-282.). […] Oocytes were injected with 2.5 ng of hSGLT1-cRNA or with 2.5 ng pf hSGLT1-cRNA plus 10 ng of hRS1-cRNA. In some experiments either 10 ng of wild-type (DyWt) dynamin cRNA or 10 ng of dominant gegative dynamin mutant (DyMu) cRNA were coinjected. After three days of incubation for expression, phlorizin inhibitable uptake of 50 μM of [^14C]AMG was measured over a time period of 15 min as described earlier (Lambotte et al., (1996) DNA Cell Biol. 15, 769-777).
According to the methods described in Example 11 Xenopus oocytes were injected with 2.5 ng of SGLT1-cRNA or with 2.5 ng of SGLT1-cRNA plus 10 ng of hRS1 and incubated three days for expression (FIG. 11). Then the oocytes were injected with 50 nl Ori buffer (controls) or with 50 nl Ori buffer containing 20 μM of the protein kinase C activator sn-1,2-dioctanoyl glycerol (DOG). After 30 min incubation the phlorizin inhibitable uptake of 50 μM [^14C]AMG was measured as in FIG. 10.

[2] = test system: hSGLT1 and hRS1; assay: [14C]AMG uptake in Xenopus laevis oocytes coexpressing hSGLT1 and hRS1, with protein kinase C activation; format: cell-based, human; conditions: coexpression of hSGLT1 and hRS1; 50 nl Ori buffer containing 20 μM DOG injected, 30 min incubation; 50 μM [14C]AMG
Method: as §1, §2
According to the methods described in Example 11 Xenopus oocytes were injected with 2.5 ng of SGLT1-cRNA or with 2.5 ng of SGLT1-cRNA plus 10 ng of hRS1 and incubated three days for expression (FIG. 11). Then the oocytes were injected with 50 nl Ori buffer (controls) or with 50 nl Ori buffer containing 20 μM of the protein kinase C activator sn-1,2-dioctanoyl glycerol (DOG). After 30 min incubation the phlorizin inhibitable uptake of 50 μM [^14C]AMG was measured as in FIG. 10. […]

CCCCCCCC(=O)OC[C@H](CO)OC(=O)CCCCCCC [DOG, sn-1,2-dioctanoyl glycerol, reference compound]
uptake of AMG expressed by hSGLT1, change by DOG ([1]; hSGLT1 alone, 50 nl Ori buffer containing 20 μM DOG injected, 30 min incubation, 50 μM [14C]AMG): increased | expressed uptake of AMG, change by DOG [2]: decreased

B1: hRS1: human RS1 protein, expressed in Xenopus oocytes from injected hRS1-cRNA; regulator of SGLT1 (protein, UniProt Q92681 1-617, looked up)
Regulatory solute carrier …: MSSLPTSDGFNHPARSSGQSPDVGNPMSLARSVSASVCPIKPSDSDRIEPKAVKALKASAEFQLNSEKKEHLSLQDLSDHASSADHAPTDQSPAMPMQNSSEEITVAGNLEKSAERSTQGLKFHLHTRQEASLSVTSTRMHEPQMFLGEKDWHPENQNLSQVSDPQQHEEPGNEQYEVAQQKASHDQEYLCNIGDLELPEERQQNQHKIVDLEATMKGNGLPQNVDPPSAKKSIPSSECSGCSNSETFMEIDTAQQSLVTLLNSTGRQNANVKNIGALDLTLDNPLMEVETSKCNPSSEILNDSISTQDLQPPETNVEIPGTNKEYGHYSSPSLCGSCQPSVESAEESCPSITAALKELHELLVVSSKPASENTSEEVICQSETIAEGQTSIKDLSERWTQNEHLTQNEQCPQVSFHQAISVSVETEKLTGTSSDTGREAVENVNFRSLGDGLSTDKEGVPKSRESINKNRSVTVTSAKTSNQLHCTLGVEISPKLLAGEEDALNQTSEQTKSLSSNFILVKDLGQGIQNSVTDRPETRENVCPDASRPLLEYEPPTSHPSSSPAILPPLIFPATDIDRILRAGFTLQEALGALHRVGGNADLALLVLLAKNIVVPT
expression of AMG uptake by hSGLT1 after coexpression of hRS1 ([1]; 2.5 ng SGLT1-cRNA plus 10 ng hRS1, three days, FIG. 11): reduced | phlorizin inhibitable uptake of 50 μM [14C]AMG ([1]; 2.5 ng hSGLT1-cRNA plus 10 ng hRS1-cRNA, three days expression, hSGLT1 alone 56±7): 10±1.5 pmol/oocyte×15 min | Km value of AMG uptake expressed by hSGLT1 ([1]; coexpression with hRS1, unpublished data not shown): does not change | phlorizin inhibitable uptake of 50 μM [14C]AMG ([1]; hSGLT1-cRNA plus hRS1-cRNA, 10 ng dominant negative dynamin mutant (DyMu) cRNA coinjected): 37±3.5 pmol/oocyte×15 min | phlorizin inhibitable uptake of 50 μM [14C]AMG ([1]; hSGLT1-cRNA plus hRS1-cRNA, 10 ng wild-type dynamin (DyWt) cRNA coinjected): 2.5 pmol/oocyte×15 min | Vmax of AMG transport by hSGLT1 after coexpression with hRS1 ([1]; tracer uptake studies and electrical measurements, unpublished data not shown): decreased
